B1: AtGALT31A (Arabidopsis thaliana beta-galactosyltransferase 1 from family GT31, At1g32930), C-terminal mCer3-HA or YFP-HA fusion (enzyme, UniProt Q9MAP8 1-399, looked up)
chain: MGMGRYQKSATSGVSARWVFVLCISSFLLGVLVVNRLLASFETVDGIERASPEQNDQSRSLNPLVDCESKEGDILSRVSHTHDVIKTLDKTISSLEVELATARAARSDGRDGSPAVAKTVADQSKIRPRMFFVMGIMTAFSSRKRRDSIRGTWLPKGDELKRLETEKGIIMRFVIGHSSSPGGVLDHTIEAEEEQHKDFFRLNHIEGYHELSSKTQIYFSSAVAKWDADFYIKVDDDVHVNLGMLGSTLARHRSKPRVYIGCMKSGPVLAQKGVKYHEPEYWKFGEEGNKYFRHATGQIYAISKDLATYISVNRQLLHKYANEDVSLGSWFIGLDVEHIDDRSLCCGTPLDCEWKGQAGNPCAASFDWSCSGICKSVDRMLEVHQRCGEGDGAIWHSSF
notes: AtGALT31A, Arabidopsis thaliana, locus At1g32930; full-length cDNA without stop codon; Two copies that differ only in the tag were used in the FRET experiments: mCer3-HA (donor) and YFP-HA (acceptor); They are kept as one molecule so that the homodimer row has the protein with itself; also called AtGALT31A-mCer3; AtGALT31A-YFP; source: N. benthamiana leaves, Agrobacterium-infiltrated, transient …
B2: AtGALT29A (Arabidopsis thaliana beta-galactosyltransferase 1 from family GT29, At1g08280), C-terminal mCer3-HA or YFP-HA fusion (enzyme, UniProt Q9SGD2 1-398, looked up)
chain: MKRSVRPLFSALLFAFFAATLICRVAIRRSSFSFASAIAELGSSGLMTEDIVFNETLLEFAAIDPGEPNFKQEVDLISDYDHTRRSHRRHFSSMSIRPSEQQRRVSRDIASSSKFPVTLRSSQAYRYWSEFKRNLRLWARRRAYEPNIMLDLIRLVKNPIDVHNGVVSISSERYLSCAVVGNSGTLLNSQYGDLIDKHEIVIRLNNAKTERFEKKVGSKTNISFINSNILHQCGRRESCYCHPYGETVPIVMYICQPIHVLDYTLCKPSHRAPLLITDPRFDVMCARIVKYYSVKKFLEEKKAKGFVDWSKDHEGSLFHYSSGMQAVMLAVGICEKVSVFGFGKLNSTKHHYHTNQKAELKLHDYEAEYRLYRDLENSPRAIPFLPKEFKIPLVQVYH
notes: AtGALT29A, Arabidopsis thaliana, locus At1g08280; full-length cDNA without stop codon; Two copies that differ only in the tag were used in the FRET experiments: mCer3-HA (donor) and YFP-HA (acceptor); They are kept as one molecule so that the homodimer row has the protein with itself; The label in each row tells which copy was meant; also called AtGALT29A-mCer3; AtGALT29A-YFP; source: N. …

Columns and labels:
Experiment in all cases: FRET or BRET; acceptor photobleaching FRET, mCer3 donor and YFP acceptor, co-expressed in N. benthamiana leaf epidermal cells; Golgi ROIs, pixel-by-pixel FRET efficiency
[1] = biological target: B2; settings: partners not purified
[2] = biological target: the molecule itself
[3] = biological target: B1; settings: partners not purified

Row | FRET efficiency [1] [%] | FRET efficiency [3] [%] | Binder | FRET efficiency [2] [%]
1 | 29 | – | B1 | 19
2 | – | 18 | B2 | 34

From paper PMC4234293, “Galactosyltransferases from Arabidopsis thaliana in the biosynthesis of type II arabinogalactan: molecular interaction enhances enzyme activity” (BMC Plant Biology, 2014)
